Read-outs that look alike come from different tables or passages of the source. Bridges are numbered along the chain shown (N, C = ends).
Columns and labels:
Assay in all cases: FCPIA (flow cytometry protein interaction assay, Luminex beads); dose curves of 5nd on RGS4 cysteine mutants (5 nM, or 20 nM for the mutants with no Cys in the domain or the C-terminus) and labeled Gαo; curves constrained to 100% and 0%
[1] = target: MBP-RGS4Δ51N A148C in the -7C (UniProt P49799)
[2] = target: MBP-RGS4Δ51N A95C in the -7C (UniProt P49799)
[3] = target: MBP-RGS4Δ51N -7C mutant (all 7 cysteines removed) (UniProt P49799)
[4] = target: MBP-RGS4Δ51N A132C in the -7C (UniProt P49799)
[5] = target: MBP-RGS4Δ51N with no Cys in the RGS domain (UniProt P49799)
[6] = target: MBP-RGS4Δ51N A71C in the -7C (UniProt P49799)
[7] = target: MBP-RGS4Δ51N with no Cys in the C-terminus (UniProt P49799)
[8] = target: MBP-RGS4Δ51N with no Cys in the C-terminus (UniProt P49799); remark: listed apart in the source

B1: Peptide 5nd (Tyr-Trp-c[Cys-Lys-Gly-Leu-Cys]-Lys-NH2, S-S) (peptide)
peptide: H-YWCKGLCK-NH2
modifications: disulfide 3-7
SMILES: CC(C)C[C@@H]1NC(=O)CNC(=O)[C@H](CCCCN)NC(=O)[C@@H](NC(=O)[C@H](Cc2c[nH]c3ccccc23)NC(=O)[C@@H](N)Cc2ccc(O)cc2)CSSC[C@@H](C(=O)N[C@@H](CCCCN)C(N)=O)NC1=O
[1]
  logIC50: -3.51 log M
[2]
  logIC50: -3.58 log M
[3]
  logIC50: -3.24 log M
[4]
  logIC50: -3.41 log M
[5]
  logIC50: -3.8 log M
[6]
  logIC50: -3.2 log M
[7]
  logIC50: -4.39 log M
[8]
  logIC50: -4.5 log M

Source: PMC2700083, “A covalent peptide inhibitor of RGS4 identified in a focused one-bead, one compound library screen” (BMC Pharmacology, 2009)
